How the values were obtained:
[1] = target: T1, Human LOX-1 full-length protein (human, UniProt P78380 1-273); assay: flow cytometry, biotinylated antibody on primary human neutrophils, PE-streptavidin
T1 construct: also called huLOX-1/HEK293 cells; human LOX-1 transfected HEK293 cells
Protocol: The resulting cell suspension was carefully transferred to a 50 mL conical tube containing 10 mL Ficoll-Paque, layering the cell suspension on top of the Ficoll-Paque, and the tube was then centrifuged at 1400 rpm (400×g) for 30 minutes at room temperature. The top layer was the discarded. To the resulting cell pellet, 10 mL 0.2% ice-cold sodium chloride was added, and the mixture was incubated for exactly 30 seconds to lyse red blood cells; 10 mL of ice-cold 1.6% sodium chloride was added to restore isotonicity. The cell suspension was then centrifuged at 1200 rpm ([…]) for 5 minutes. The supernantant was then discarded, and the red blood cell lysis procedure repeated once more. The resulting cell pellet was resuspended in FACS buffer (2 mM EDTA, 1% BSA, and 0.2% sodium azide in PBS) at a cell density of 2×10⁶ cells/mL.
The cell suspension containing freshly isolated human neutrophils was transferred (50 ul/well) to wells of a 96-well V-bottom plate (1×10⁵ cells/well) (Costar, catalog number 3894). Blocking buffer (4% normal rabbit serum diluted in FACS buffer (2 mM EDTA, 1% BSA, and 0.2% sodium azide in PBS) (50 ul/well) was added and the plate was incubated on ice for 30 minutes. Biotinylated LOX-1 antibody (10 μl) in FACS buffer was then added to the wells at final concentrations ranging from 1 ng/ml to 5 ug/mL, and the plate was incubated on ice for 30 minutes. The plate was then centrifuged at 1200 rpm (250-300×g) for 3 minutes and supernatant was discarded. The cells were then washed twice with 0.2 mL FACS buffer, and then 0.1 mL of PE-streptavidin (BD Pharmingen catalog number 554061) diluted at 1:250 in FACS buffer was added, and the plate incubated on ice for 30 minutes. The plate was then centrifuged again, supernatant discarded, and the cells washed twice with 0.2 mL FACS buffer. Cells were then resuspended in 0.1 mL of fixing buffer (FACS buffer with 2% paraformaldehyde) and analyzed using a FACS instrument. To determine an EC50 value for neutrophil binding by LOX-1 antibodies, the LOX-1 staining intensity determined by FACS was plotted vs. the concentration of the antibody as shown in FIG. 5 and Table 3.

[2] = target: T1, Human LOX-1 full-length protein; assay: cell-based or functional assay
[3] = target: T1, Human LOX-1 full-length protein; assay: flow cytometry, inhibition of dil-OxLDL binding to huLOX-1/HEK293 cells
Protocol: The huLOX-1/HEK293 cells were resuspended at 1×10⁶ cells/mL and seeded 50 μL per well into a 96-well V-bottom plate (5×10⁴ cells per well). LOX-1 or irrelevant control antibodies in assay medium (DMEM+10% FBS) were then added to the cells. Typical final antibody concentrations ranged from 0.006 μg/mL to 20 μg/mL. The cells were incubated at 37° C. for 1 hour, then washed twice with warm HBSS. Dil-oxLDL (human dil-labeled “High Oxidized” LDL, Kalen Biomedical, catalog number 770262-9; Dil is 1,1′-dioctadecyl-3,3,3′,3′-tetramethylindocarbocyanine perchlorate) in 50 ul assay medium was then added to a final concentration 30 to 100 μg/mL. The cells were then incubated at 37° C. for 2 hours, and then washed twice with FACS buffer (2% FBS in PBS). Cells were then analyzed for intensity of Di-I fluorescence by flow cytometry, as depicted in FIG. 2 and Table 3.

[4] = target: T2, APP-Avi-soluble cynomolgus monkey LOX-1 (61-273) (cynomolgus monkey, biotinylated at the Avi tag when immobilised in the SET assay); assay: SPR Biacore T200, antibody captured by anti-mouse IgG, cynomolgus soluble LOX-1 as analyte, 1:1 model
T2 construct: Expressed and purified in the same way as the human protein; also called cynomolgus monkey soluble LOX-1; Cynomolgus Monkey Soluble APP-Avi-LOX-1
T2 sequence (chain, as listed by the source): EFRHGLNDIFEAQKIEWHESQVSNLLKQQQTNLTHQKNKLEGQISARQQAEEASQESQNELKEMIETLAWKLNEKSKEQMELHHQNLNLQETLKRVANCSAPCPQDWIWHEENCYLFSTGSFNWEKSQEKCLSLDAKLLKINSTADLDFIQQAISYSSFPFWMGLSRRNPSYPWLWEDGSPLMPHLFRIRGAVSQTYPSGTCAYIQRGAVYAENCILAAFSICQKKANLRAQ
Protocol: For murine LOX-1 antibody E2E10 binding to human and cynomolgus monkey LOX-1, a Biacore T200 was primed with fresh, filtered running buffer (1×HBS-EP+(GE catalog number BR-1006-60)). A CM5 chip (GE catalog number BR-1005-30) was prepared using a mouse antibody capture kit (GE catalog number BR-1008-38) and an amine coupling kit (GE catalog number BR-1000-50). Briefly, a new chip was activated with EDC/NHS at 10 ul/min for 420 sec. Anti-mouse IgG antibody was immobilized at […] 10 mM acetate pH 5.0 at 10 ul/min for 420 sec. The chip surface was deactivated with 1M ethanolamine solution (10 ul/min for 420 sec) and then conditioned three times with 10 mM Glycine-HCl, pH 1.5 (GE catalog number BR-1003-54) at 60 ul/min for 30 sec.
For sample cycles, 1) Ms-anti-Hu LOX-1 mAb was captured on flow cell 2, 3, or 4 for a pre-determined amount of time that allowed for capture of approximately 20RUs at 10 ul/min. Flow cell 1 was used as a reference, 2) running buffer for 30s at 60 ul/min, 3) human soluble LOX-1 or cynomolgus monkey soluble LOX-1 diluted in running buffer at various concentrations (with at least two duplicate samples and multiple buffer blanks for 350 sec at 60 ul/min, with either 750 sec or 3000 sec dissociation time), 4) regeneration buffer for 60 sec at 60 ul/min, 5) running buffer for 35s at 60 ul/min, extra wash with running buffer and including a carry-over control. Data were analyzed using buffer blanks, reference blank, and a 1:1 binding model for curve fitting in order to determine association and dissociation rate constants (ka and kd) and equilibrium binding constants (KD) (see results for E2E10 in Tables 7-8).

B1: E2E10 (murine parental) (antibody, IgG1, V domains shown)
VH: QVQLQQSGAELVRPGASVKLSCKALGYTFTDYEMHWVKQTPVHGLEWIGAIHPGSGGAAYIQKFKGKATLTADKSSSTAHMELSSLTSEDSAVYYCTRWLPMDYWGQGTSVTVSS
VL: DIQMTQSSSYLSVSLGGRVTITCKASDHINNWLAWYQQKPGNAPRLLISGATSLETGVPSRFSGSGSGKDYTLSITGLQTEDVATYYCQQYLITPYTFGGGTKLEIK
notes: Mouse hybridoma monoclonal antibody, IgG1 with a kappa light chain; Biotinylated in the SET and neutrophil assays; also called Clone 39.1E2E10; mouse parental
EC50 [1]: 0.04 µg/mL
Reactive oxygen species (ROS) generation in huLOX-1/HEK293 cells (IC50, nM) [2]: 5.7 nM
IC50 [3]: 4 nM
Kd [4]: 0.015 nM
koff [4]: 2.5e-05 s⁻¹
kon [4]: 1.7e+06 M⁻¹ s⁻¹

Reference: patent publication US20170152313A1 (Novartis, published 2017)
